Source: article PMC3751566

Key:
syntaxin4 [1] = molecular target: syntaxin4 (UniProt P70452); test: syntaxin4 IP, Munc18c blot (reciprocal); conditions: reference: wild type Munc18c (WT and R cells), insulin
syntaxin4 [2] = molecular target: syntaxin4 (UniProt P70452); test: Munc18c IP, syntaxin4 blot; conditions: reference: wild type Munc18c (WT and R cells), insulin

| Substance | binding against the reference (syntaxin4 [1]; sites Y218,Y219) | binding against the reference (syntaxin4 [2]; sites Y218,Y219) | binding against the reference (syntaxin4 [1]; sites Y521) | binding against the reference (syntaxin4 [2]; sites Y521) |
| --- | --- | --- | --- | --- |
| Munc18c (from UniProt Q60770) Y218/219F, insulin | stronger | stronger | – | – |
| Munc18c (from UniProt Q60770) Y521F, insulin | – | – | stronger | stronger |
